In article PMC4215875:
pKd: −log10 of the molar value.

What was measured:
alpha-HER2 CH1 ADC = alpha-HER2 CH1 ADC (UniProt P01857); details: pH 7.3; not stated (pH 7.3)
[1] = target: alpha-HER2 CH1 tag (trastuzumab with aldehyde Tag C) (UniProt P01857); details: pH 7.3; not stated (pH 7.3)
alpha-HER2 CT ADC = alpha-HER2 CT ADC (UniProt P01857); details: pH 7.3; not stated (pH 7.3)
[2] = target: alpha-HER2 CT tag (trastuzumab with aldehyde Tag G) (UniProt P01857); details: pH 7.3; not stated (pH 7.3)
alpha-HER2 LC ADC = alpha-HER2 LC ADC (UniProt P01857); details: pH 7.3; not stated (pH 7.3)
[3] = target: alpha-HER2 LC tag (trastuzumab with light-chain aldehyde tag); details: pH 7.3; not stated (pH 7.3)
[4] = target: alpha-HER2 untagged (trastuzumab) (UniProt P01857); details: pH 7.3; not stated (pH 7.3)
[5] = target: alpha-HER2-DM1 ADC (in-house T-DM1 analogue) none in sequence; heterogeneous lysine conjugation with SMCC-DM1 (DAR 3.4) (UniProt P01857); details: pH 7.3; not stated (pH 7.3)
FcRn = FcRn (UniProt P55899); test: SPR

Neonatal Fc receptor (FcRn)
% Bound after 5 s (alpha-HER2 CH1 ADC): 9.5 % bound
% Bound after 5 s [1]: 9.9 % bound
% Bound after 5 s (alpha-HER2 CT ADC): 12 % bound
% Bound after 5 s [2]: 9.9 % bound
% Bound after 5 s (alpha-HER2 LC ADC): 10.9 % bound
% Bound after 5 s [3]: 11 % bound
% Bound after 5 s [4]: 8.6 % bound
% Bound after 5 s [5]: 14.9 % bound

α-HER2 CH1 ADC (CH1-tagged trastuzumab conjugated to HIPS-Glu-PEG2-maytansine) (antibody)
pKd (FcRn): 8.32

α-HER2 CH1 tag (trastuzumab with the aldehyde tag in the CH1 domain, Tag C) (antibody)
% Bound after 5 s at pH 7.3 (FcRn): 9.9%
pKd (FcRn): 8.28

α-HER2 CT ADC (CT-tagged trastuzumab conjugated to HIPS-Glu-PEG2-maytansine) (antibody)
% Bound after 5 s at pH 7.3 (FcRn): 12%
pKd (FcRn): 8.36

α-HER2 CT tag (trastuzumab with the aldehyde tag at the heavy chain C-terminus, Tag G) (antibody)
% Bound after 5 s at pH 7.3 (FcRn): 9.9%
pKd (FcRn): 8.24

α-HER2 LC ADC (LC-tagged trastuzumab conjugated to HIPS-Glu-PEG2-maytansine) (antibody)
% Bound after 5 s at pH 7.3 (FcRn): 10.9%
pKd (FcRn): 8.32

α-HER2 LC tag (trastuzumab with the aldehyde tag in the light chain) (antibody)
% Bound after 5 s at pH 7.3 (FcRn): 11%
pKd (FcRn): 8.33

α-HER2 untagged (trastuzumab) (antibody)
pKd (FcRn): 8.28

α-HER2-DM1 ADC (trastuzumab conjugated through conventional lysine chemistry to SMCC-DM1) (antibody)
% Bound after 5 s at pH 7.3 (FcRn): 14.9%
pKd (FcRn): 8.30
